Source: patent US20160287687A1 (IMMATICS BIOTECHNOLOGIES, published 2016)

Biological target: T1, HLA-A*02:01 (human)
T1 construct: MHC monomers first loaded with a UV-sensitive peptide (not identified) that is cleaved by UV light and exchanged for the test peptide; captured on streptavidin plates, detected with anti-β2m; also called peptide-receptive MHC molecules; MHC class I
Assay: UV-ligand exchange + anti-b2m ELISA; peptide exchange yield grade (+ >=10%, ++ >=20%, +++ >=50, ++++ >=75%)
Excerpt: Candidate peptides for T cell based therapies according to the present invention were further tested for their MHC binding capacity (affinity). The individual peptide-MHC complexes were produced by UV-ligand exchange, where a UV-sensitive peptide is cleaved upon UV-irradiation, and exchanged with the peptide of interest as analyzed. Only peptide candidates that can effectively bind and stabilize the peptide-receptive MHC molecules prevent dissociation of the MHC complexes. To determine the yield of the exchange reaction, an ELISA was performed based on the detection of the light chain (β2m) of stabilized MHC complexes. The assay was performed as generally described in Rodenko et al. (Rodenko et al., 2006).
96 well MAXISorp plates (NUNC) were coated over night with 2 ug/ml streptavidin in PBS at room temperature, washed 4× and blocked for 1h at 37° C. in 2% BSA containing blocking buffer. Refolded HLA-A*02:01/MLA-001 monomers served as standards, covering the range of 15-500 ng/ml. Peptide-MHC monomers of the UV-exchange reaction were diluted 100 fold in blocking buffer. Samples were incubated for 1 h at 37° C., washed four times, incubated with 2 ug/ml HRP conjugated anti-β2m for 1h at 37° C., washed again and detected with TMB solution that is stopped with […]. Absorption was measured at 450 nm. […]

B1: SLTALRLLL (SEQ ID NO: 70) (peptide)
peptide: SLTALRLLL
notes: source gene KBTBD11
peptide exchange yield: 20 to 50%
